# Measurements as given in patent US20190022211A1 (CELLTRION, published 2019).
# Values joined by “and” are separate entries in the source; they are usually repeats but may differ in a detail not shown here. Identical values can stand only once.
# T1: G protein of rabies virus ERA, on virus (rabies virus, UniProt P03524 20-524)
# T1 sequence: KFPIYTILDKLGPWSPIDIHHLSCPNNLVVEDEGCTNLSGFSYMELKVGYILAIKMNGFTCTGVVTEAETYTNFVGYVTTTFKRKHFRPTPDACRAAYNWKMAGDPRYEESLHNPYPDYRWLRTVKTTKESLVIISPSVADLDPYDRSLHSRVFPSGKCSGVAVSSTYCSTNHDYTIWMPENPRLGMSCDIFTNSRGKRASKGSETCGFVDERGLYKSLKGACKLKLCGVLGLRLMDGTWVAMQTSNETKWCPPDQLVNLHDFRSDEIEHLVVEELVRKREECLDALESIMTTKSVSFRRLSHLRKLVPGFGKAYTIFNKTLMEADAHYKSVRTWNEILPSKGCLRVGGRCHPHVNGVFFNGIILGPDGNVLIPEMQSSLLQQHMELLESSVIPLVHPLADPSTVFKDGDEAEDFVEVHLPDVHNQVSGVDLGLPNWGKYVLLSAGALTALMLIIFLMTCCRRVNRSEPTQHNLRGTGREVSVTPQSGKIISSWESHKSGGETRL
# B1: antibody 2 (antibody, V domains shown)
# VH: EVQLVESGAEVKKPGASVKVSCKASGYTFTSYDISWVRQAPGQGLEWMGWISTYKGNTNFAQKFQDRVTLTTDTSTTTAYMELRSLTSDDTAVYYCARAKSHPFYDFWSAYYVPGAFDIWGQGTVVTVSS
# VL: not shown
# B2: antibody 1 (antibody, V domains shown)
# VH: VQLLQESGPGLAKPSETLSLICTVSGGSISRRRDYWGWIRQPPGRGLEWIGSFFHRGSTYYNPSLESRVSISVDPSKNQFSLHLSSVTVADTAVYYCARHPSTPFAEYLLLPDAFDSWGQGTLVTVSS
# VL: DIVMTQSPATLSVSPGERATLSCRASQSVRSSLAWYQQRPGQAPRLLISGASTRATDIPARLSGSGSGTEFTLTVSSLQSEDFAVYYCQQYSDWPLTFGGGTKVEIKR
# How the values were obtained:
# Test in all cases: cell-based or functional assay
# [1] = target: G protein of rabies virus TN 132 (Bat, Tennessee, USA), on virus (rabies virus)
# [2] = target: G protein of rabies virus CASK (Skunk, California, USA), on virus (rabies virus)
# [3] = target: G protein of rabies virus 3860 CA Bat (Bat, California, USA), on virus (rabies virus)
# [4] = target: G protein of Wu ABLV (Australian bat lyssa, Genotype 7), on virus (Australian bat lyssa, Genotype 7)
# [5] = target: G protein of rabies virus RVHN (Human (ex, wolf), Russia, Arctic), on virus (rabies virus)
# [6] = target: G protein of rabies virus AZ Bat (Bat, Arizona), on virus (rabies virus)
# [7] = target: G protein of EBLV 1 A09-3484 (Genotype 5), on virus (EBLV 1, Genotype 5)
# [8] = target: G protein of rabies virus Dog Tun (Dog, Tunisia), on virus (rabies virus)
# [9] = target: G protein of rabies virus TN410 (Bat, Tennessee, USA), on virus (rabies virus)
# [10] = target: G protein of rabies virus Mongoose PR (Mongoose, Puerto-Rico), on virus (rabies virus)
# [11] = target: G protein of rabies virus TX SK 4384 (Skunk, Texas, USA), on virus (rabies virus)
# [12] = target: G protein of Duvenhage (Genotype 4), on virus (Duvenhage, Genotype 4)
# [13] = target: G protein of rabies virus Sri Lanka (Cow, Sri Lanka), on virus (rabies virus)
# [14] = target: G protein of rabies virus Gabon dog (Dog, Gabon), on virus (rabies virus)
# [15] = target: G protein of rabies virus Myotis (Bat, Washington, USA), on virus (rabies virus)
# [16] = target: T1, G protein of rabies virus ERA, on virus
# [17] = target: G protein of rabies virus Phi 002 (231) (Human/dog, Philippines), on virus (rabies virus)
# [18] = target: G protein of rabies virus 323R (Dog/Coyote, Texas, USA), on virus (rabies virus)
# [19] = target: G protein of EBLV 2 A03-4659 (Genotype 6), on virus (EBLV 2, Genotype 6)
# [20] = target: G protein of rabies virus phi dog (Human/dog, Philippines), on virus (rabies virus)
# [21] = target: G protein of rabies virus Bat Ef (Bat, Pennsylvania, USA), on virus (rabies virus)
# [22] = target: G protein of rabies virus NC SK (Skunk, Wisconsin, USA), on virus (rabies virus)
# [23] = target: G protein of EBLV 2 A09-3483 (Genotype 6), on virus (EBLV 2, Genotype 6)
# [24] = target: G protein of rabies virus WA Bat (Bat, Washington, USA), on virus (rabies virus)
# [25] = target: G protein of rabies virus C1434 (Bat, Alabama, USA), on virus (rabies virus)
# [26] = target: G protein of rabies virus AK FX (Arctic Fox, Alaska, USA), on virus (rabies virus)
# [27] = target: G protein of rabies virus Dog thai (Dog, Thailand), on virus (rabies virus)
binder,measurement,setting,value
B1,neutralizing activity (RFFIT),[1],10 IU/mL and 50000 IU/mg
same,"neutralizing activity (RFFIT), Titer",[1],280
same,neutralizing activity (RFFIT),[2],0.43 IU/mL and 2160 IU/mg
same,"neutralizing activity (RFFIT), Titer",[2],54
same,neutralizing activity (RFFIT),[3],1.5 IU/mL and 7500 IU/mg
same,"neutralizing activity (RFFIT), Titer",[3],210
same,neutralizing activity (RFFIT),[4],0.68 IU/mL and 3380 IU/mg
same,"neutralizing activity (RFFIT), Titer",[4],440
same,neutralizing activity (RFFIT),[5],0.31 IU/mL and 1560 IU/mg
same,"neutralizing activity (RFFIT), Titer",[5],42
same,neutralizing activity (RFFIT),[6],11.3 IU/mL and 11300 IU/mg
same,"neutralizing activity (RFFIT), Titer",[6],1300
same,neutralizing activity (RFFIT),[7],5.4 IU/mL and 27000 IU/mg
same,"neutralizing activity (RFFIT), Titer",[7],540
same,neutralizing activity (RFFIT),[8],2.7 IU/mL and 2700 IU/mg
same,"neutralizing activity (RFFIT), Titer",[8],270
same,neutralizing activity (RFFIT),[9],5.33 IU/mL and 26700 IU/mg
same,"neutralizing activity (RFFIT), Titer",[9],200
same,neutralizing activity (RFFIT),[10],0.4 IU/mL and 2000 IU/mg
same,"neutralizing activity (RFFIT), Titer",[10],56
same,neutralizing activity (RFFIT),[11],3570 IU/mg and 0.71 IU/mL
same,"neutralizing activity (RFFIT), Titer",[11],250
same,neutralizing activity (RFFIT),[12],7.2 IU/mL and 36000 IU/mg
same,"neutralizing activity (RFFIT), Titer",[12],180
same,neutralizing activity (RFFIT),[13],0.4 IU/mL and 2000 IU/mg
same,"neutralizing activity (RFFIT), Titer",[13],50
same,neutralizing activity (RFFIT),[14],1.06 IU/mL and 5310 IU/mg
same,"neutralizing activity (RFFIT), Titer",[14],170
same,neutralizing activity (RFFIT),[15],2 IU/mL and 10000 IU/mg
same,"neutralizing activity (RFFIT), Titer",[15],280
same,neutralizing activity (RFFIT),[16],1.79 IU/mL and 8930 IU/mg
same,"neutralizing activity (RFFIT), Titer",[16],250
same,neutralizing activity (RFFIT),[17],2.5 IU/mL and 2500 IU/mg
same,"neutralizing activity (RFFIT), Titer",[17],250
same,neutralizing activity (RFFIT),[18],3.47 IU/mL and 17400 IU/mg
same,"neutralizing activity (RFFIT), Titer",[18],625
same,neutralizing activity (RFFIT),[19],3.11 IU/mL and 15600 IU/mg
same,"neutralizing activity (RFFIT), Titer",[19],280
same,neutralizing activity (RFFIT),[20],1.04 IU/mL and 5180 IU/mg
same,"neutralizing activity (RFFIT), Titer",[20],280
same,neutralizing activity (RFFIT),[21],1.05 IU/mL and 5260 IU/mg
same,"neutralizing activity (RFFIT), Titer",[21],50
same,neutralizing activity (RFFIT),[22],2.16 IU/mL and 2160 IU/mg
same,"neutralizing activity (RFFIT), Titer",[22],270
same,neutralizing activity (RFFIT),[23],5.56 IU/mL and 27800 IU/mg
same,"neutralizing activity (RFFIT), Titer",[23],125
same,neutralizing activity (RFFIT),[24],2 IU/mL and 2000 IU/mg
same,"neutralizing activity (RFFIT), Titer",[24],250
same,neutralizing activity (RFFIT),[25],0.96 IU/mL and 4800 IU/mg
same,"neutralizing activity (RFFIT), Titer",[25],36
same,neutralizing activity (RFFIT),[26],2 IU/mL and 10000 IU/mg
same,"neutralizing activity (RFFIT), Titer",[26],270
same,neutralizing activity (RFFIT),[27],9.3 IU/mL and 9290 IU/mg
same,"neutralizing activity (RFFIT), Titer",[27],1300
B2,neutralizing activity (RFFIT),[1],2 IU/mL and 10000 IU/mg
same,"neutralizing activity (RFFIT), Titer",[1],56
same,neutralizing activity (RFFIT),[2],0.4 IU/mL and 2000 IU/mg
same,"neutralizing activity (RFFIT), Titer",[2],50
same,neutralizing activity (RFFIT),[3],0.4 IU/mL and 2000 IU/mg
same,"neutralizing activity (RFFIT), Titer",[3],56
same,neutralizing activity (RFFIT),[4],0.38 IU/mL and 1920 IU/mg
same,"neutralizing activity (RFFIT), Titer",[4],250
same,neutralizing activity (RFFIT),[5],0.4 IU/mL and 2000 IU/mg
same,"neutralizing activity (RFFIT), Titer",[5],54
same,neutralizing activity (RFFIT),[6],1.1 IU/mL and 1090 IU/mg
same,"neutralizing activity (RFFIT), Titer",[6],125
same,neutralizing activity (RFFIT),[7],0.56 IU/mL and 2800 IU/mg
same,"neutralizing activity (RFFIT), Titer",[7],56
same,neutralizing activity (RFFIT),[8],2.3 IU/mL and 2300 IU/mg
same,"neutralizing activity (RFFIT), Titer",[8],230
same,neutralizing activity (RFFIT),[9],0.51 IU/mL and 2530 IU/mg
same,"neutralizing activity (RFFIT), Titer",[9],19
same,neutralizing activity (RFFIT),[10],0.39 IU/mL and 1930 IU/mg
same,"neutralizing activity (RFFIT), Titer",[10],54
same,neutralizing activity (RFFIT),[11],1070 IU/mg and 0.21 IU/mL
same,"neutralizing activity (RFFIT), Titer",[11],75
same,neutralizing activity (RFFIT),[12],0.44 IU/mL and 2200 IU/mg
same,"neutralizing activity (RFFIT), Titer",[12],13
same,neutralizing activity (RFFIT),[13],0.43 IU/mL and 2160 IU/mg
same,"neutralizing activity (RFFIT), Titer",[13],54
same,neutralizing activity (RFFIT),[14],0.41 IU/mL and 2030 IU/mg
same,"neutralizing activity (RFFIT), Titer",[14],65
same,neutralizing activity (RFFIT),[15],1.64 IU/mL and 8210 IU/mg
same,"neutralizing activity (RFFIT), Titer",[15],230
same,neutralizing activity (RFFIT),[16],0.36 IU/mL and 1790 IU/mg
same,"neutralizing activity (RFFIT), Titer",[16],50
same,neutralizing activity (RFFIT),[17],2.5 IU/mL and 2500 IU/mg
same,"neutralizing activity (RFFIT), Titer",[17],250
same,neutralizing activity (RFFIT),[18],0.33 IU/mL and 1670 IU/mg
same,"neutralizing activity (RFFIT), Titer",[18],60
same,neutralizing activity (RFFIT),[19],0.6 IU/mL and 3000 IU/mg
same,"neutralizing activity (RFFIT), Titer",[19],54
same,neutralizing activity (RFFIT),[20],0.28 IU/mL and 1390 IU/mg
same,"neutralizing activity (RFFIT), Titer",[20],75
same,neutralizing activity (RFFIT),[21],1.05 IU/mL and 5260 IU/mg
same,"neutralizing activity (RFFIT), Titer",[21],50
same,neutralizing activity (RFFIT),[22],2.24 IU/mL and 2240 IU/mg
same,"neutralizing activity (RFFIT), Titer",[22],280
same,neutralizing activity (RFFIT),[23],2.22 IU/mL and 11100 IU/mg
same,"neutralizing activity (RFFIT), Titer",[23],50
same,neutralizing activity (RFFIT),[24],2.2 IU/mL and 2160 IU/mg
same,"neutralizing activity (RFFIT), Titer",[24],270
same,neutralizing activity (RFFIT),[25],0.51 IU/mL and 2530 IU/mg
same,"neutralizing activity (RFFIT), Titer",[25],19
same,neutralizing activity (RFFIT),[26],0.44 IU/mL and 2220 IU/mg
same,"neutralizing activity (RFFIT), Titer",[26],60
same,neutralizing activity (RFFIT),[27],2.3 IU/mL and 2290 IU/mg
same,"neutralizing activity (RFFIT), Titer",[27],320
